From paper PMC6096924, “Mechanism of activation of the BNLF2a immune evasion gene of Epstein-Barr virus by Zta”

Tests used:
Conditions in all cases: protein: recombinant; tags: His, GST (fusion); chain copies: 2; label: IR-800; blunt
[1] = target: T1, His-GST-Zta (DNA binding and dimerization region) (Epstein-Barr virus, UniProt P03206 168-245); test: EMSA
[2] = target: T1, His-GST-Zta (DNA binding and …); test: EMSA; highest binding of the five ZREs
[3] = target: T1, His-GST-Zta (DNA binding and …); test: EMSA; CpG methylation; binding increased vs unmethylated ZRE1 (P<=0.01)

T1 sequence (P03206 168-245): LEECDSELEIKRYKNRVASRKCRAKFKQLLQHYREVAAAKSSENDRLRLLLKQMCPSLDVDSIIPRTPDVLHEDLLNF

Binder	binding result [1]	also measured
BNLF2a ZRE3 (dsDNA) DNA 1: CTTTCCATCTTGTGCCAATACACATTT DNA 2: AAATGTGTATTGGCACAAGATGGAAAG	binds	–
BNLF2a ZRE5 (dsDNA) DNA 1: TAAGCTACTATGACTAACCTTTCTTTA DNA 2: TAAAGAAAGGTTAGTCATAGTAGCTTA	binds	–
BNLF2a ZRE2 (dsDNA) DNA 1: CACCTGTTGTTGACACATTCTTTGCGC DNA 2: GCGCAAAGAATGTGTCAACAACAGGTG	–	binding result [2]: binds
BNLF2a ZRE4 (dsDNA) DNA 1: TCACCTTAACTGGCACACACTCCCTTA DNA 2: TAAGGGAGTGTGTGCCAGTTAAGGTGA	binds	–
BNLF2a ZRE1 (dsDNA) DNA 1: ACACCTGTCCTCGCTCATCTTTCCACA DNA 2: TGTGGAAAGATGAGCGAGGACAGGTGT	binds	–
BNLF2a ZRE1me (CpG-methylated) (dsDNA, 5-methyl-C (printed meC) at C12 of strand 1 and C15 of strand 2) DNA 1: ACACCTGTCCTCGCTCATCTTTCCACA DNA 2: TGTGGAAAGATGAGCGAGGACAGGTGT	–	binding result [3]: binds
